Target: T1, recombinant human VEGF165 (full-length VEGF165-His protein, R&D Systems; rhVEGF, R&D Systems Cat.-No. 293-VE) (human, UniProt P15692-4 27-191)
T1 construct: The ELISA method names 'full-length VEGF165-His protein', and the Biacore method names rhVEGF (R&D 293-VE); also called VEGF-A
Test: ELISA and Biacore (SPR), including simultaneous binding (bridging ELISA, SPR sandwich)
Procedure: Unbound Streptavidin-POD conjugate is washed away with three-six times 300 μl PBST (0.2% Tween 20) and bound Strepatavidin-POD conjugate is detected by addition of 100 μL ABTS/well. Determination of absorbance is performed on a Tecan Fluor Spectrometer at a measurement wavelength of 405 nm (reference wavelength 492 nm).
In order to further corroborate the data from the bridging ELISA an additional assay is established to confirm simultaneous binding to VEGF and Ang-2 using surface plasmon resonance technology on a Biacore T100 instrument according to the following protocol and analyzed using the T100 software package (T100 Control, Version 2.01, T100 Evaluation, Version 2.01, T100 Kinetics Summary, Version 1.01): Ang-2 is captured with a capture level of 2000-1700 RU in PBS, 0.005% (v/v) Tween20 running buffer via a PentaHisAntibody (PentaHis-Ab BSA-free, Qiagen No. 34660) that is immobilized on a CM5 chip via amine coupling (BSA-free). HBS-N buffer served as running buffer during coupling, activation is done by mixture of EDC/NHS. The PentaHis-Ab BSA-free Capture-Antibody is diluted in coupling buffer NaAc, pH 4.5, c=30 μg/mL, finally still activated carboxyl groups are blocked by injection of 1 M Ethanolamine; ligand densities of 5000 and 17000 RU are tested. Ang-2 with a concentration of 500 nM is captured by the PentaHis-Ab at a flow of 5 μL/min diluted with running buffer+1 mg/mL BSA. […] For this sake, the bispecific tetravalent <VEGF-Ang-2> antibody is bound to Ang-2 at a flow of 50 μL/min and a concentration of 100 nM, diluted with running buffer+1 mg/mL BSA and simultaneous binding is detected by incubation with VEGF (rhVEGF, R&D-Systems Cat.-No, 293-VE) in PBS+0.005% (v/v) Tween20 running buffer at a flow of 50 μL/min and a VEGF concentration of 150 nM. Association time 120 sec, dissociation time 1200 sec. Regeneration is done after each cycle at a flow of 50 μL/min with 2×10 mM Glycin pH 2.0 and a contact time of 60 sec. […] Blanks for each Ab are measured with rhVEGF concentration “0”.

T1 sequence (P15692 other isoform, or with tags, fused parts or gaps limits assumed): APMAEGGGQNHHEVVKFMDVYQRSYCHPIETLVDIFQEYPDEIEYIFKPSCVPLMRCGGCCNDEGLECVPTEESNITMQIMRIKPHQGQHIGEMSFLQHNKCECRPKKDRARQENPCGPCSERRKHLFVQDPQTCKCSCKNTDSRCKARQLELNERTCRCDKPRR

Binder	binding result
bispecific tetravalent antibody recognizing Ang-2 and VEGF-A of Example 1 (<VEGF> VH-CL fused via (G4S)4-connector to the C-terminus of the <Ang-2> heavy chain) (bispecific antibody, human IgG1, kappa, Tetravalent, expressed in HEK293F from three plasmids; also called bispecific tetravalent <VEGF-Ang-2> antibody; <Ang-2, VEGF> bispecific tetravalent antibody) heavy: not shown light: QPGLTQPPSVSVAPGQTARITCGGNNIGSKSVHWYQQKPGQAPVLVVYDDSDRPSGIPERFSGSNSGNTATLTISRVEAGDEADYYCQVWDSSSDHYVFGTGTKVTVLRTVAAPSVFIFPPSDEQLKSGTASVVCLLNNFYPREAKVQWKVDNALQSGNSQESVTEQDSKDSTYSLSSTLTLSKADYEKHKVYACEVTHQGLSSPVTKSFNRGEC DIQMTQSPSSLSASVGDRVTITCSASQDISNYLNWYQQKPGKAPKVLIYFTSSLHSGVPSRFSGSGSGTDFTLTISSLQPEDFATYYCQQYSTVPWTFGQGTKVEIKSSASTKGPSVFPLAPSSKSTSGGTAALGCLVKDYFPEPVTVSWNSGALTSGVHTFPAVLQSSGLYSLSSVVTVPSSSLGTQTYICNVNHKPSNTKVDKKVEPKSC	binds
bispecific tetravalent antibody recognizing Ang-2 and VEGF-A of Example 3 (<Ang-2> VH-CH1 fused via (G4S)4-connector to the C-terminus of the heavy chain of a … (bispecific antibody, Tetravalent, expressed in HEK293F from three plasmids; also called bispecific tetravalent <VEGF-Ang-2> antibody; <Ang-2, VEGF> bispecific tetravalent antibody) heavy: not shown light: QPGLTQPPSVSVAPGQTARITCGGNNIGSKSVHWYQQKPGQAPVLVVYDDSDRPSGIPERFSGSNSGNTATLTISRVEAGDEADYYCQVWDSSSDHYVFGTGTKVTVLRTVAAPSVFIFPPSDEQLKSGTASVVCLLNNFYPREAKVQWKVDNALQSGNSQESVTEQDSKDSTYSLSSTLTLSKADYEKHKVYACEVTHQGLSSPVTKSFNRGEC DIQMTQSPSSLSASVGDRVTITCSASQDISNYLNWYQQKPGKAPKVLIYFTSSLHSGVPSRFSGSGSGTDFTLTISSLQPEDFATYYCQQYSTVPWTFGQGTKVEIKSSASTKGPSVFPLAPSSKSTSGGTAALGCLVKDYFPEPVTVSWNSGALTSGVHTFPAVLQSSGLYSLSSVVTVPSSSLGTQTYICNVNHKPSNTKVDKKVEPKSC	binds
bispecific tetravalent antibody recognizing Ang-2 and VEGF-A of Example 2 (<VEGF> VH-CL fused via (G4S)4-connector to the N-terminus of the <Ang-2> heavy chain) (bispecific antibody, human IgG1, kappa, Tetravalent, expressed in HEK293F from three plasmids; also called bispecific tetravalent <VEGF-Ang-2> antibody; <Ang-2, VEGF> bispecific tetravalent antibody) heavy: not shown light: QPGLTQPPSVSVAPGQTARITCGGNNIGSKSVHWYQQKPGQAPVLVVYDDSDRPSGIPERFSGSNSGNTATLTISRVEAGDEADYYCQVWDSSSDHYVFGTGTKVTVLRTVAAPSVFIFPPSDEQLKSGTASVVCLLNNFYPREAKVQWKVDNALQSGNSQESVTEQDSKDSTYSLSSTLTLSKADYEKHKVYACEVTHQGLSSPVTKSFNRGEC DIQMTQSPSSLSASVGDRVTITCSASQDISNYLNWYQQKPGKAPKVLIYFTSSLHSGVPSRFSGSGSGTDFTLTISSLQPEDFATYYCQQYSTVPWTFGQGTKVEIKSSASTKGPSVFPLAPSSKSTSGGTAALGCLVKDYFPEPVTVSWNSGALTSGVHTFPAVLQSSGLYSLSSVVTVPSSSLGTQTYICNVNHKPSNTKVDKKVEPKSC	binds
